Results on 19 molecules are retold here after patent US20230002757A1.

The chains are these.
B1: NGS602-OLIGO_12 (VHH)
VHH: QVQLVESGGGSVQAGGSLRLSCAASGRTFGRHVMAWFRQAPGREREFVAAISGNGRVTNYALSMKGRFTISRDNANDMVYLQMDGLKPEDTAVYSCATRMAFDSDSNFPATYDVWGQGTQVTVSS
B2: NGS602-OLIGO_359 (VHH)
VHH: QVQLVESGGGLVQPGGSLRLSCAASGYSLSFYAMGWYRQSPGKQREVVARIAGPGVTNYADSVMGRFTISRDNAKNMVYLQMNSLEPEDTAVYYCNAGGTRWSVGDYWGKGTLVTVSS
B3: NGS602-OLIGO_30 (VHH)
VHH: QVQLVESGGGTVQAGGSLRLSCAASGLTFGSYAMEWYRQAPGKERELVATISSGGNTHYLASVKGRFTISRDNDKNTLYLQMNSLKPEDTAVYYCAAKYGWTGIWYAPSDYVHLGPGTQVTVSS
B4: NGS602-OLIGO_31 (VHH)
VHH: QVQLVESGGGLVQAGDSLRLSCTASGTTFDRYHMGWFRQAPGMERHVVAHISWSGANTYVADSMKGRFTISRDNAKNTAYLQINNLKFEDTALYYCAAGSYLAVPGSRWDYWGQGTQVTVSS
B5: NGS602-OLIGO_28 (VHH)
VHH: QVQLVESGGGLVRAGGSLRLSCAASGRAFSSYPMGWFRRAPGKEREFVAAISLSGSKQYYVDSVKGRFTISRDNAKNTVSLQMNSLKPEDTAVYYCAALKDGEPPAVDYWGQGTQVTVSS
B6: NGS602-OLIGO_205 (VHH)
VHH: RVQLVESGGGLVQPGGSLRLSCTASGLPLNTAAMSWYRQTPGKERELVASISITGDSTTYADSVKGRFTISRDNVKNIVYLQMDILKPEDTAVYYCTRAPWDYKYWGQGTQVTVSS
B7: NGS602-OLIGO_152 (VHH)
VHH: QVQLVESGGGLVQAGDSLRLSCAASGDNFSRYTFGWFRQAPGKEREFVAVINWSGSYTYVADSVAGRFTMSRDNAKHLVYLQMDSLNTGDTAVYYCAAHWDYGSSSRRQREYDYWGQGTQVIVSS
B8: NGS602-OLIGO_35 (VHH)
VHH: QVSLVESGGGLVQAGGSLRLSCAASGRTFRRSAMGWFRRPPGKEREFVAAITSSGGSIYDPDIAKDRFTISRDNSKTSVYLQMNNLKPEDTAVYYCSLKTTYSGGPYDYTKGPEYDYWGQGTQVTVSS
B9: NGS602-OLIGO_151 (VHH)
VHH: EVQLVESGGGLVQPGGSLRLSCTASGFTLSTSPVSWARQAPGKGPEWLAGIYSDGRTSNLVSLRGRFTISRDNAKNTVYLQMNSLLPEDTALYYCAIGAAAVGGLRGQGTQVTVSS
B10: NGS602-OLIGO_186 (VHH)
VHH: QVQLAESGGGLVQAGDSLRLSCAASGRSVSSYAMGWFRQAPGKEREFVAAISWSGESTHYADSVKGRFTISRDNAENTVYLQMNSLKPEDTAVYYCASYLSGHYYFGIGRDPPFGSWGQGTQVTVSS
B11: NGS602-OLIGO_149 (VHH)
VHH: QVQLVESGGGLVQAGDSLRLSCAASGRTFSSYAMAWFRRPPGKAREFVALIRWSNGRTAVVDSVKGRFTASRDNAKNTGYLQMDSLKSEDTAVYYCAACDQALDPPRCNDWGQGTQVTVSS
B12: NGS602-OLIGO_55 (VHH)
VHH: QVQLTESGGGLVQAGASLRLSCVASPDTPSTYTIAWFRRAPGKERDFVANIARAGTTITYADSVKGRFTISKDNARNTVYLQMNNLTPADTAIYYCAAYSPGSIIARDSTQYRYWGQGTRVTVSE
B13: NGS602-OLIGO_72 (VHH)
VHH: QVELVESGGALVQAGGSLKLSCVDSGRSFSSYVVAWFRQAPGKEREFVARVSASGAIRTYADSVRGRFTISRDNTKATVYLQMNSLKSEDTAVFFCAAGGVSTAVHPFKPTSYDFWGQGTQVTVSV
B14: NGS602-OLIGO_221 (VHH)
VHH: QVQLVESGGGLVQAGESLRLSCVASGRTFSSYAMGWFRQAPGQEREFVARISRRGTNTYYADSVRGRFTISRDNAKNTVYLQMNSLKPEDTAVYYCAADRSDVFEKDPGYYDYWGQGAQVTVSS
B15: NGS602-OLIGO_185 (VHH)
VHH: QVQLVESGGGLVQAGGSLRLSCAASGRTSSRYVMGWFRQSPGKEREFVAAISANGRSTNYAGSVNGRFKISRDGAKDKVDLQMNSLKPEDTAVYFCATNMAFSSSSNFPANYDVWGQGTQVTVSS
B16: NGS602-OLIGO_2 (VHH)
VHH: QVQLVESGGGLVQPGGSLRLSCAASESIRSIYAMGWYRQAPGKQRELVALVTDDGSTDYVDSVKGRFTVSRDSAKNTVYLQMNSLKPEDTAVYHCYVEGSTHYDPVREYWGKGTLVTVSS
B17: NGS602-OLIGO_169 (VHH)
VHH: RVQLVESGGGLVQAGGALRLSCVGSGFTFRDTAMAWFRQSPGKEREFVAGFSILSRYADSVKGRFTISRDNDKNTVYLQMNSLKPEDTAVYYCAAGDGTIASVLTTSGVNFWGQGTQVTVSS
B18: NGS602-OLIGO_266 (VHH)
VHH: QVQLVESGGGLVQAGGSLRLSCAASGRTFFTYPMGWFRQAPGKERQFVAAISGNGDSIDYADSVKGRFTISRDNAKNTLYLQMNSLKPEDAALYYCNAVITHDYTRPLFASWGQGTQVTVSS
B19: NGS602-OLIGO_42 (VHH)
VHH: QVQLVESGGGLVQAGGSLRLSCLFSGTFGIYGMGWFRQAPGKAREFVAGVSRHGLTTQYADSVKGRFTISRDNAKNTMYLQMNSLKPEDTADYYCARSRLSASLLVTASDYDYWGQGTQVTVSS

The target in the experiment is KLH (Keyhole Limpet Hemocyanin) (keyhole limpet). The experiment is described as follows: ELISA on KLH.
B1 registered an EC50 of 0.181 nM.
In turn, B2 gave an EC50 of 0.61 nM.
For the molecule B3, the EC50 is 0.067 nM.
Regarding B4, the EC50 was 1.01 nM.
With B5, the EC50 was found to be 0.707 nM.
In turn, B6 returned an EC50 of 1.16 nM.
Regarding B7, the EC50 came to 0.638 nM.
The molecule B8 gave an EC50 of 0.291 nM.
Regarding B9, the EC50 was 0.409 nM.
Molecule B10 returned an EC50 of 0.28 nM.
With B11, the EC50 was found to be 0.147 nM.
The same measure for B12: 0.241 nM; for B13: 0.072 nM.
As to B14, the EC50 came out at 220 nM.
B15 showed an EC50 of 0.077 nM.
B16 showed an EC50 of 1.74 nM.
As for B17, the EC50 is 0.213 nM.
B18 came in with an EC50 of 0.195 nM.
The same measure for B19: 0.342 nM.
